Test results as given in patent US20180155451A1 (published 2018).

T1: FcγRIIb (human, UniProt P31994 43-217)
T1 construct: extracellular domain; also called FcgRIIb; 2b
T1 sequence (looked up): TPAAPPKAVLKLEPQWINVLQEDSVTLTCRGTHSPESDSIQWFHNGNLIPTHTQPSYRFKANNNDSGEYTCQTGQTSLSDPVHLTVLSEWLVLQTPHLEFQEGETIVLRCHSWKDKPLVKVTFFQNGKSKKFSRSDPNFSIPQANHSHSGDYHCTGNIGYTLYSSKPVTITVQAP

T2: FcγRIIb (human, UniProt P31994 43-217)
T2 construct: extracellular domain; also called 2b
T2 sequence (looked up): T1 sequence (looked up)

T3: FcγRIIa H (human, UniProt P12318 34-217)
T3 construct: extracellular domain; also called FcγRIIa type H; 2aH
T3 sequence (looked up): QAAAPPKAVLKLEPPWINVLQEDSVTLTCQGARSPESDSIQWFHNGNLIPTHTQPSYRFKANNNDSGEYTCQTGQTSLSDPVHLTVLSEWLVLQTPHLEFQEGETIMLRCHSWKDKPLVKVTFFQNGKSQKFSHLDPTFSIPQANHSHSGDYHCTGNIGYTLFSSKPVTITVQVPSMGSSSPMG

B1: GpH7-A5/GpH7-B3 variant (G237_03V)/GpL16-k0 (antibody, human IgG1, kappa)
heavy 1: not shown
heavy 2: not shown
light: DIVMTQSPLSLPVTPGEPASISCQASESLVHSNRNTYLHWYLQKPGQSPQLLIYKVSNRFSGVPDRFSGSGSGTDFTLKISRVEAEDVGVYYCSQNTHVPPTFGQGTKVEIERTVAAPSVFIFPPSDEQLKSGTASVVCLLNNFYPREAKVQWKVDNALQSGNSQESVTEQDSKDSTYSLSSTLTLSKADYEKHKVYACEVTHQGLSSPVTKSFNRGEC
notes: IgG1 heterodimer, mutation in the GpH7-B3 chain only; also called He Ab
B2: GpH7-A5/GpH7-B3 variant (E269_06M)/GpL16-k0 (antibody, human IgG1, kappa)
heavy 1: not shown
heavy 2: not shown
light: B1 light
notes: as for B1
B3: GpH7-A5/GpH7-B3 variant (G236_16H)/GpL16-k0 (antibody, human IgG1, kappa)
heavy 1: not shown
heavy 2: not shown
light: B1 light
notes: as for B1
B4: GpH7-A5/GpH7-B3 variant (E269_08L)/GpL16-k0 (antibody, human IgG1, kappa)
heavy 1: not shown
heavy 2: not shown
light: B1 light
notes: as for B1
B5: GpH7-A5/GpH7-B3 variant (E269_02A)/GpL16-k0 (antibody, human IgG1, kappa)
heavy 1: not shown
heavy 2: not shown
light: B1 light
notes: as for B1
B6: GpH7-A5/GpH7-B3 variant (G236_02A)/GpL16-k0 (antibody, human IgG1, kappa)
heavy 1: not shown
heavy 2: not shown
light: B1 light
notes: as for B1
B7: GpH7-A5/GpH7-B3 variant (E269_15Y)/GpL16-k0 (antibody, human IgG1, kappa)
heavy 1: not shown
heavy 2: not shown
light: B1 light
notes: as for B1
B8: GpH7-A5/GpH7-B3 variant (E269_04F)/GpL16-k0 (antibody, human IgG1, kappa)
heavy 1: not shown
heavy 2: not shown
light: B1 light
notes: as for B1
B9: GpH7-A5/GpH7-B3 variant (H268_06M)/GpL16-k0 (antibody, human IgG1, kappa)
heavy 1: not shown
heavy 2: not shown
light: B1 light
notes: as for B1
B10: GpH7-A5/GpH7-B3 variant (G236_14T)/GpL16-k0 (antibody, human IgG1, kappa)
heavy 1: not shown
heavy 2: not shown
light: B1 light
notes: as for B1
B11: GpH7-A5/GpH7-B3 variant (H268_07I)/GpL16-k0 (antibody, human IgG1, kappa)
heavy 1: not shown
heavy 2: not shown
light: B1 light
notes: as for B1
B12: GpH7-A5/GpH7-B3 variant (H268_12R)/GpL16-k0 (antibody, human IgG1, kappa)
heavy 1: not shown
heavy 2: not shown
light: B1 light
notes: as for B1
B13: GpH7-A5/GpH7-B3 variant (G237_05P)/GpL16-k0 (antibody, human IgG1, kappa)
heavy 1: not shown
heavy 2: not shown
light: B1 light
notes: as for B1
B14: GpH7-A5/GpH7-B3 variant (G236_06M)/GpL16-k0 (antibody, human IgG1, kappa)
heavy 1: not shown
heavy 2: not shown
light: B1 light
notes: as for B1
B15: GpH7-A5/GpH7-B3 variant (E269_03V)/GpL16-k0 (antibody, human IgG1, kappa)
heavy 1: not shown
heavy 2: not shown
light: B1 light
notes: as for B1
B16: GpH7-A5/GpH7-B3 variant (E269_16H)/GpL16-k0 (antibody, human IgG1, kappa)
heavy 1: not shown
heavy 2: not shown
light: B1 light
notes: as for B1
B17: GpH7-A5/GpH7-B3 variant (E269_14T)/GpL16-k0 (antibody, human IgG1, kappa)
heavy 1: not shown
heavy 2: not shown
light: B1 light
notes: as for B1
B18: GpH7-A5/GpH7-B3 variant (E269_05P)/GpL16-k0 (antibody, human IgG1, kappa)
heavy 1: not shown
heavy 2: not shown
light: B1 light
notes: as for B1
B19: GpH7-A5/GpH7-B3 variant P331_16H/GpL16-k0 (antibody, human IgG1, kappa)
heavy 1: not shown
heavy 2: not shown
light: B1 light
notes: heterodimerized IgG1, mutation in one H chain only; also called He Ab
B20: GpH7-A5/GpH7-B3 variant (G236_20W)/GpL16-k0 (antibody, human IgG1, kappa)
heavy 1: not shown
heavy 2: not shown
light: B1 light
notes: IgG1 heterodimer, G236W in the GpH7-B3 chain only; also called GpH7-A5/GpH7-B3-03-20W/GpL16-k0; He Ab
B21: GpH7-A5/GpH7-B3 variant P331_20W/GpL16-k0 (antibody, human IgG1, kappa)
heavy 1: not shown
heavy 2: not shown
light: B1 light
notes: as for B19
B22: GpH7-A5/GpH7-B3 variant (H268_14T)/GpL16-k0 (antibody, human IgG1, kappa)
heavy 1: not shown
heavy 2: not shown
light: B1 light
notes: as for B1

Experiments:
FcγRIIb [1] = biological target: T1, FcγRIIb; test: SPR, captured antibody; relative to GpH7-A5/GpH7-B3/GpL16-k0
FcγRIa = biological target: T4, FcγRIa (human, UniProt P12314 16-292); test: as above
T4 construct: extracellular domain; also called FcgRI; 1a

FcγRIIb [2] = biological target: T2, FcγRIIb; test: SPR (Biacore), relative binding vs GpH7-A5/GpH7-B3/GpL16-k0
Protocol: (§1) The heterodimerized antibodies He Abs in which one of the H chains was introduced with an alteration were assayed for their binding activities to each activating FcγR and inhibitory FcγR according to the method described in Example 4. […] The activating FcγRs in FIGS. 26, 27, 28, and 29 are FcγRIa, FcγRIIa (R), FcγRIIa (H), and FcγRIIIa, respectively.
(§2) Analysis of interaction between objective antibody and the FcγR was carried out using Biacore T100 (GE Healthcare). HBS-EP+ (GE Healthcare) was used as the running buffer, and the measurement temperature was set to 25° C. Chips produced by immobilizing the antigen peptide by the amine coupling method to a Series S Sencor Chip CM5 (GE Healthcare), or alternatively, chips produced by allowing preliminarily biotinylated antigen peptides to interact with and immobilize onto a Series S Sensor Chip SA (certified) (GE Healthcare) were used. Antibodies of interest were captured onto an antigen peptide-immobilized chip, and allowed to interact to each FcγR diluted with running buffer. To regenerate and repeatedly use the chip, the antibodies captured on the chip were washed off by reacting 10 mM glycine-HCl, pH 1.5.

FcγRIIa H = biological target: T3, FcγRIIa H; test: as above
Protocol: as §1, §2

T4 sequence (P12314 16-292): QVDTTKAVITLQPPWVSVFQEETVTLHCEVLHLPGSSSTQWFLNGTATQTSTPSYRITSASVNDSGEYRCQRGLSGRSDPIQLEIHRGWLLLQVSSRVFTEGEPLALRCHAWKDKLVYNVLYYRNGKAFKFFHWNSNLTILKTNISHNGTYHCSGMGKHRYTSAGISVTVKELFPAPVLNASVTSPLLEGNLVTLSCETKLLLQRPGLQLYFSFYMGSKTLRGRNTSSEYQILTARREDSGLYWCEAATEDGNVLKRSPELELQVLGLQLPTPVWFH

| Binder | He/Con_2b (FcγRIIb [1]) | He/Con_1a (FcγRIa) | He/Con_2b (FcγRIIb [2]) | He/Con_2aH (FcγRIIa H) |
| --- | --- | --- | --- | --- |
| B1 | 61.4 relative, HeCon Ab = 100 | 78.5 relative, HeCon Ab = 100 | – | – |
| B2 | 46.7 relative, HeCon Ab = 100 | 104 relative, HeCon Ab = 100 | – | – |
| B3 | 27.9 relative, HeCon Ab = 100 | 83.5 relative, HeCon Ab = 100 | – | – |
| B4 | 42.9 relative, HeCon Ab = 100 | 104 relative, HeCon Ab = 100 | – | – |
| B5 | 49.9 relative, HeCon Ab = 100 | 104 relative, HeCon Ab = 100 | – | – |
| B6 | 96.5 relative, HeCon Ab = 100 | 100 relative, HeCon Ab = 100 | – | – |
| B7 | 44.7 relative, HeCon Ab = 100 | 106 relative, HeCon Ab = 100 | – | – |
| B8 | 45 relative, HeCon Ab = 100 | 103 relative, HeCon Ab = 100 | – | – |
| B9 | 65.7 relative, HeCon Ab = 100 | 105 relative, HeCon Ab = 100 | – | – |
| B10 | 57.8 relative, HeCon Ab = 100 | 92.2 relative, HeCon Ab = 100 | – | – |
| B11 | 88.9 relative, HeCon Ab = 100 | 108 relative, HeCon Ab = 100 | – | – |
| B12 | 89.8 relative, HeCon Ab = 100 | 106 relative, HeCon Ab = 100 | – | – |
| B13 | 24.6 relative, HeCon Ab = 100 | 44.5 relative, HeCon Ab = 100 | – | – |
| B14 | 45.5 relative, HeCon Ab = 100 | 96.7 relative, HeCon Ab = 100 | – | – |
| B15 | 45.1 relative, HeCon Ab = 100 | 103 relative, HeCon Ab = 100 | – | – |
| B16 | 38.5 relative, HeCon Ab = 100 | 106 relative, HeCon Ab = 100 | – | – |
| B17 | 50.6 relative, HeCon Ab = 100 | 106 relative, HeCon Ab = 100 | – | – |
| B18 | 52.6 relative, HeCon Ab = 100 | 102 relative, HeCon Ab = 100 | – | – |
| B19 | – | – | 116 % of control He Ab (=100) | 84.5 % of control He Ab (=100) |
| B20 | 58.2 relative, HeCon Ab = 100 | 105 relative, HeCon Ab = 100 | – | – |
| B21 | – | – | 111 % of control He Ab (=100) | 82.8 % of control He Ab (=100) |
| B22 | 86 relative, HeCon Ab = 100 | 112 relative, HeCon Ab = 100 | – | – |
